3 molecules from US20230312745A1 can be followed below.

For test [1], the target named is Ly6C on mouse blood mononuclear cells (mouse) (UniProt P0CW02). In words: flow cytometry contour plot of live mononuclear-gated blood cells 1 h after injection into DSS treated mice; upper left quadrant 9.7; Mock panel 14.6 and 0.30.
Test [2] has as its target LFA-1 on the mouse T cell lymphoma cell line TK1 (mouse) (UniProt P24063). Description: flow cytometry, control: secondary scFv on TK1 cells without RIg; left gate 97.9; unstain 1.87; target taken as the LFA-1 carried by TK1 cells. For orientation: In flow cytometry, cells or beads pass a laser one at a time.
The target in test [3] is Rat IgG2a (RIg), clone FIB504 (BioXcell). Description: ELISA, plate coated with RIg, serial dilutions of ASSET, anti-His detection. Background: An ELISA detects its analyte on a solid surface through an enzyme-linked reagent.
Test [4] addresses anti-CD34 antibody (clone mec14.7) RIg, self-assembled on ASSET LNPs (TsiLNPs). In words: RIg taken up by ASSET LNPs, acrylamide gel against free RIg dilutions / western blot after 1 MDa dialysis.
For test [5], the target named is Rat IgG2a (RIg), clone FIB504 (BioXcell). In words: ELISA on coated RIg, ASSET LNPs after dialysis, pre-incubated with 0.2% Triton X-100.

UniProt P0CW02, sequence (P0CW02 27-109): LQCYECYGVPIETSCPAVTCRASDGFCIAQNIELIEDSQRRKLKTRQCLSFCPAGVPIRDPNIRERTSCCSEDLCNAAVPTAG

In test [1], “isotype control RIg (BioXcell), self-assembled on ASSET LNPs (TsiLNPs) (antibody)” showed a number in the upper right quadrant (Ly6C high, siCy5 high) of 0.53.

B1: Secondary scFv (scFv of clone RG7/1.30, without lipidation motif) (scFv)
scFv: HHHHHHEVQLLQSGPELVKPGASVKIPCKASGYTFTDYNMDWVKQSHEKSLEWIGYINPYSGDTIYNHKFKDKATLTVYKSSNIAYMELRSLTSEDTAVYYCARGGYDYGDHWGQGTTLTVSSGSAGGGGSGGGGSGGGGSDIKMTQSPSSMYASLGERVTITCKASQDINSYLSWFQQKPGKSPKTLIYRANRLVDGVPSRFSGSGSGQDYSLTISSLEYEDMGIYYCLQDDEFPRTFGGGTKLEIK
B1 had a number in the right (positive) gate of the histogram in test [2] of 2.06.

B2: ASSET (Anchored Secondary scFv Enabling Targeting) (scFv, part only; not given: mCherry fusion partner, part only)
scFv, part: CDQSSSEVQLLQSGPELVKPGASVKIPCKASGYTFTDYNMDWVKQSHEKSLEWIGYINPYSGDTIYNHKFKDKATLTVYKSSNIAYMELRSLTSEDTAVYYCARGGYDYGDHWGQGTTLTVSSGSAGGGGSGGGGSGGGGSDIKMTQSPSSMYASLGERVTITCKASQDINSYLSWFQQKPGKSPKTLIYRANRLVDGVPSRFSGSGSGQDYSLTISSLEYEDMGIYYCLQDDEFPRTFGGGTKLEIKHHHHHH
modifications: N-terminal cysteine of the CDQSSS NlpA motif is lipidated (bacterial lipidation)
In the case of B2, the Kd in test [3] stood at 10 nM. In addition, the IgG incorporation in test [4] was 98.3%. For the same molecule, the functionality maintained after incorporation into LNPs in test [5] was 95.8%.

A word on the Kd: it is the constant that tells how readily two partners part at equilibrium.
